B1: AA (structured_DNA)
DNA 1: GGTTGGTGTGGTTGGA
DNA 2: GGTTGGTGTGGTTGGA
modifications: 3'-3' phosphodiester inversion joins the two listed segments covalently (both written 5' to 3'); one molecule, not a duplex

Biological target: human alpha-thrombin (Homo sapiens, UniProt P00734;P00734 315-363;364-622)
Test: ITC; ITC in PBS (10 mM phosphate, 2.7 mM KCl, 137 mM NaCl), pH 7.4, 22 °C; ODN 25 or 100 µM into thrombin 2.5 or 10 µM

| Binder | Kd [nM] |
| --- | --- |
| GGTTGGTGTGGTTGG (structured_DNA) [TBA] | 8 |
| B1 | 10 |

Source: paper PMC6591170
